Here are results for 2 molecules from CN111072775A (OLYMVAX BIOPHARMACEUTICALS INC; UNIV ARMY MEDICAL, dated 2020).

In this test the target is T1, MntC蛋白 (锰离子转运蛋白C亚单位, 重组MntC蛋白) (金黄色葡萄球菌 (Staphylococcus aureus)).
T1 construct: Recombinant MntC used as immunogen and as ELISA coating antigen; also called MntC重组蛋白; MntC蛋白标准品
T1 chain: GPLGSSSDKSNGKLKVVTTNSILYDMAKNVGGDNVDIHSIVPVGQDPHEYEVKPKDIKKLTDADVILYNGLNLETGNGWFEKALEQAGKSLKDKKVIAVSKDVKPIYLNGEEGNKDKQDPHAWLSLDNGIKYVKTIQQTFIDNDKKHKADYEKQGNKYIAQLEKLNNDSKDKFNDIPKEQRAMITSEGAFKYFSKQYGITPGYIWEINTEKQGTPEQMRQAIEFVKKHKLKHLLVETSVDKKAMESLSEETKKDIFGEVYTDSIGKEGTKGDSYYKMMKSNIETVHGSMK
Briefly: ELISA on MntC with HRP-labelled antibody. (In general: In an ELISA, binding on a coated surface is turned into a signal by an enzyme label.)

Residue numbers refer to the chain shown, from its start.

B1: HRP标记的抗体3F6 (antibody, V domains shown)
VH: VQLQQSGPSLVKPSQTLSLTCSVTGDSITNGYWNWIRKFPGNKLEYMGYISYSGTTYYNPSLKSRISITRDTSKNQYYLQLNSVTTEDTATYYCSRIRPYRHLGFDYWGQGTTVTVSS
VL: DIVMTQTPASLAVSLGQRATISCKASQSVDYGGDSYMNWYQQKPGQPPKLLIYAASNLESGIPARFSGSGSGTDFTLNIHPVEEEDGATYYCQQSNEDPWTFGGGTKLEIK
modifications: HRP label by the sodium periodate oxidation method; chain and site not stated
notes: also called HRP标记抗体 (3F6)
On to B1, for which the binding result was “binds”.

B2: HRP标记的抗体3C10 (antibody, V domains shown)
VH: B1 VH with Q2K, Q5E
VL: B1 VL with T7S, P8T
modifications: HRP label by the sodium periodate oxidation method; chain and site not stated
notes: also called HRP标记抗体 (3C10); 酶结合物(抗体3C10)
B2: the binding result is recorded as “binds”.
